# According to the RNAGym collection of RNA variant scans (doi:10.7554/elife.90254):
# B1: OR4K15 (parent)
# chain: GUUAACGGUCAUAGGCCAUGGAAACUAGGAGCACCAUUUCGCUGCCAGUGAAGAAAUGAACAAAGAAAAUCUGGGCCAGGCAGGCAUCAAAAGAAAUAGUCUUGCGCUCAACCAGAAAGUCUGUAAUCAUUUUAAGGGUA
# Variants of: B1
# Assay: self-cleavage, relative activity (ratio to wild type); higher = more cleavage; in vitro, sequencing; the parent is a self-cleaving ribozyme
row,Variant,self-cleavage
1,U139G A140U,1.51
2,G138U,1.69
3,G138A,0.93
4,G138C,1.73
5,G137U,2.05
6,U139C A140G,1.57
7,G138A A140U,1.08
